How the values were obtained:
Test in all cases: pull-down
[1] = molecular target: hnRNP-A1 N-terminal RRMs fragment (a.a. 1-188) (UniProt P09651-2 1-188)
[2] = molecular target: GST fusion with the C-terminal DNA-PKcs fragment H (a.a. 3747-4128) (human, UniProt P78527 3747-4128)
[3] = molecular target: GST fusion with DNA-PKcs fragment H2 (a.a. 3747-4097) (human, UniProt P78527 3747-4097)
Chain of GST fusion with DNA-PKcs fragment H2 (a.a. 3747-4097) (P78527 3747-4097): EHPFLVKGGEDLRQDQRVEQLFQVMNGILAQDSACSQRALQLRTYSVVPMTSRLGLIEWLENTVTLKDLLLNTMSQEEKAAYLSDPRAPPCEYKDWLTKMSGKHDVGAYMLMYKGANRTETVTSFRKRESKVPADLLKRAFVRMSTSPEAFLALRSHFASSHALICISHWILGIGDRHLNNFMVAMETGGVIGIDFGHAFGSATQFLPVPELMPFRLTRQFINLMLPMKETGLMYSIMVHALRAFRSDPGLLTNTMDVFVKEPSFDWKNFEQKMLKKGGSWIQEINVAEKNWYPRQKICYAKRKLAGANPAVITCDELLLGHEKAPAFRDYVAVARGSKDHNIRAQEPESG

B1: GST fusion with DNA-PKcs fragment H3 (a.a. 4036-4128) (domain or fragment, human, UniProt P78527 4036-4128, looked up)
chain: KNWYPRQKICYAKRKLAGANPAVITCDELLLGHEKAPAFRDYVAVARGSKDHNIRAQEPESGLSEETQVKCLMDQATDPNILGRTWEGWEPWM
binding result [1]: binds

B2: His-tagged full-length hnRNP-A1 (recombinant, wild type) (natural protein, UniProt P09651-2 1-320, looked up)
chain: MSKSESPKEPEQLRKLFIGGLSFETTDESLRSHFEQWGTLTDCVVMRDPNTKRSRGFGFVTYATVEEVDAAMNARPHKVDGRVVEPKRAVSREDSQRPGAHLTVKKIFVGGIKEDTEEHHLRDYFEQYGKIEVIEIMTDRGSGKKRGFAFVTFDDHDSVDKIVIQKYHTVNGHNCEVRKALSKQEMASASSSQRGRSGSGNFGGGRGGGFGGNDNFGRGGNFSGRGGFGGSRGGGGYGGSGDGYNGFGNDGSNFGGGGSYNDFGNYNNQSSNFGPMKGGNFGGRSSGPYGGGGQYFAKPRNQGGYGGSSSSSSYGSGRRF
binding result [2]: binds | binding result [3]: binds

— publication PMC4499152 (Nucleic Acids Research, 2015)
